Here are results for two molecules from article PMC9637899.

In this experiment the target is T1, ElpQ_(181–343).
T1 chain: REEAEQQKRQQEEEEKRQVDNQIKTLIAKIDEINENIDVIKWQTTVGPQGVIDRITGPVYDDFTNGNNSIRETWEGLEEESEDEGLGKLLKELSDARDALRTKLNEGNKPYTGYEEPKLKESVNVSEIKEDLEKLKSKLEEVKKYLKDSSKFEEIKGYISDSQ
The experiment can be described thus: SPR. The following applies: chain shown with the change; steady-state response at the highest analyte concentration plotted (about 5e-7 M on the x axis); ElpQ181-343 immobilized, C1s construct injected; parent: est. 140; read off a plot.

B1: activated C1s–CCP1–CCP2–SP, P09871 E326A; D358A; K575A; R576A; R581A; K583A (protein)
chain: EPTMYGEILSPNYPQAYPSEVEKSWDIEVPEGYGIHLYFTHLDIELSENCAYDSVQIISGDTEEGRLCGQRSSNNPHSPIVEEFQVPYNKLQVIFKSDFSNEERFTGFAAYYVATDINECTDFVDVPCSHFCNNFIGGYFCSCPPEYFLHDDMKNCGVNCSGDVFTALIGEIASPNYPKPYPENSRCEYQIRLEKGFQVVVTLRREDFDVEAADSAGNCLDSLVFVAGDRQFGPYCGHGFPGPLNIETKSNALDIIFQTDLTGQKKGWKLRYHGDPMPCPKEDTPNSVWEPAKAKYVFRDVVQITCLDGFAVVEGRVGATSFYSTCQSNGKWSNSKLKCQPVACGIPESIENGKVEDPESTLFGSVIRYTCEEPYYYMENGGGGEYHCAGNGSWVNEVLGPELPKCVPVCGVPREPFEEKQRIIGGSDADIKNFPWQVFFDNPWAGGALINEYWVLTAAHVVEGNREPTMYVGSTSVQTSRLAKSKMLTPEHVFIHPGWKLLEVPEGRTNFDNDIALVRLKDPVKMGPTVSPICLPGTSSDYNLMDGDLGLISGWGRTEAADRAVALAAARLPVAPLRKCKEVKVEKPTADAEAYVFTPNMICAGGEKGMDSCKGDSGGAFAVQDPNDKTKFYAAGLVSWGPQCGTYGLYTRVKNYVDWIMKTMQENSTPRED
For the molecule B1, the response is 0 RU.

B2: activated C1s–CCP1–CCP2–SP, P09871 K575A; R576A; R581A; K583A (protein)
chain: EPTMYGEILSPNYPQAYPSEVEKSWDIEVPEGYGIHLYFTHLDIELSENCAYDSVQIISGDTEEGRLCGQRSSNNPHSPIVEEFQVPYNKLQVIFKSDFSNEERFTGFAAYYVATDINECTDFVDVPCSHFCNNFIGGYFCSCPPEYFLHDDMKNCGVNCSGDVFTALIGEIASPNYPKPYPENSRCEYQIRLEKGFQVVVTLRREDFDVEAADSAGNCLDSLVFVAGDRQFGPYCGHGFPGPLNIETKSNALDIIFQTDLTGQKKGWKLRYHGDPMPCPKEDTPNSVWEPAKAKYVFRDVVQITCLDGFEVVEGRVGATSFYSTCQSNGKWSNSKLKCQPVDCGIPESIENGKVEDPESTLFGSVIRYTCEEPYYYMENGGGGEYHCAGNGSWVNEVLGPELPKCVPVCGVPREPFEEKQRIIGGSDADIKNFPWQVFFDNPWAGGALINEYWVLTAAHVVEGNREPTMYVGSTSVQTSRLAKSKMLTPEHVFIHPGWKLLEVPEGRTNFDNDIALVRLKDPVKMGPTVSPICLPGTSSDYNLMDGDLGLISGWGRTEAADRAVALAAARLPVAPLRKCKEVKVEKPTADAEAYVFTPNMICAGGEKGMDSCKGDSGGAFAVQDPNDKTKFYAAGLVSWGPQCGTYGLYTRVKNYVDWIMKTMQENSTPRED
In the case of B2, the response stood at 8 RU.
